The numbers were not newly measured in PMC4359947, which cites them from elsewhere.

This series has as its target CAR D1 (Homo sapiens) (UniProt P78310).

Chain of CAR D1 (P78310 20-134): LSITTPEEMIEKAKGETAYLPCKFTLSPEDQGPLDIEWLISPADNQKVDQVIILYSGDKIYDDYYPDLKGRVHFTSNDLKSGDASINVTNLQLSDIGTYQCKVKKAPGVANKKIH

A word on the Kd: it is the concentration at which binding is half-saturated. Take CAR D1 (from UniProt P78310): the Kd is 16 µM.
